# Measured values taken from the DeepSol protein solubility set.
# Experiment: soluble on expression in E. coli; label from the status in PepcDB or PDB records
row,Sequence,soluble on expression in E. coli
1,MKRVLVLGATGRTGNFVIKELSKYKSIQLIAGLRSQKDKERLPKINAAIETVVIDIADVCSLRKALTDSDIVVQAIRLRGDISENALIQLDQRIHQAFNPSRKTHLVTVGGAGALKLEANQRFWENEYFPRQTLPRGIAHARLRDYLEKSFFNHTWTYLIPPPVYVAEGARTGSYNRYSSAQKEDFFLSKSISYADFALAIGNAVMEEWQGVYLIAEKELEHHHHHH,not soluble
2,MKRVMFHAKIHRATVTQADLHYVGSVTVDQDLLDAAGILPFEQVDIYDITNGARLTTYALPGERGSGVIGINGAAAHLVKPGDLVILVAYGVFDEEEARNLKPTVVLVDERNRILEVRKG,soluble
3,MKSFALVRADDSDKVKIALHDLERYGHIQFSATPKCIEPNYADELLVSVMGVSLKSKCNSAALVELNNHAGAAISRLKKIHPPAHIIIISPRHKMFEELAGKFPKYPEFDRTFNHQKSPQGLDMIQEKGESSNA,not soluble
4,MKSIYITGYMGAGKTTIGKALSKELHMDVVDTDQKIEEKQGKVIRDIFAEEGEMAFREYESEMLCSLPVDNVIITTGGGIVEREENRKWMKENGTVVYLYCDPHVIAERLREDTTRPLFQKKDIDAFVTKFESRRAYYEEAHIHIDTTNKSVKQIMNELKEKINE,not soluble
5,MKSNHYMSIMEEFYMDKNLLEITGYDGEGYVPLIDYSHWRVAELRYCEELEVDKLKDMQKHDETDEVFVLLEGDFTLFLGGNGEHIGEIEAIKLEPLKLYNVKRGTYHTHTPEKNSTVLIVENVDTTDDNSPKEKLTLEQKKIIEKLYKEVNS,not soluble
6,MKSQFLLSVKEHMLTRYYANKTIESYLFWIKRFIVFHQFAHPSKLSEDDVIRFLSHLAIDEKVAVKTQALALNAISFLYRDFFKTPLSLDMRFQKSLTEKKLPVVLTRDEVRRFV,not soluble
7,MKSRIPVVLLACGSFNPITNMHLRMFEVARDHLHQTGMYQVIQGIISPVNDTYGKKDLAASHHRVAMARLALQTSDWIRVDPWESEQAQWMETVKVLRHHHSKLLRSPPQMEGPDHGKALFSTPAAVPELKLLCGADVLKTFQTPNLWKDAHIQEIVEKFGLVCVGRVSHDPKGYIAESPILRMHQHNIHLAKEPVQNEISATYIRRALGQGQSVKYLIPDAVITYIKDHGLYTKGSTWKGKSTQSTEGKTS,soluble
8,MKSSEEQALAGIELDDDAVMQYLLQNPDFFIRNARLVEQMHIPHPVRGTVSLVEWQLGRQRNQIGQLEEEITLLMEQAGLNEVLFNRLLQLQGNLAAASSLQDMLNRLQRWARDFGLAGANVRLFTDRWQIGAPSDFTHLGLSRHAFEPMRIQRLGNARHYLGSLNGPELLLLLPQAKQVGSVALSLLGKEGDLGVIVFSSRDIQHYQQGMGTVMLNQLSMLLPSLLERWIEPVLEHHHHHH,not soluble
9,MKSSVEKLSETRVKLNVEVPFEELKPEIDQAYKALAQQITIPGFRRGKAPRQLIDARIGRGAVLEQVINDMLPTRYQQVVEENELVVLGQPHIDITKLEDNEVVEFTAEVDVRPEITVPDFSAFAVEVPALKSNDEAIDAQIDKLRERFGELKDTKRKLKTDDFAIIDIEAAIDGEKLEEATTEGMSYQVGAGDLIDGLDTALRGLKAGESAEFTTTLKAGEHEGKEAAVTVTVQQTKERKLPELDEEFVQTASEFDTVEELRESIAEQVAEQAKAEQATAIRDEVLKAALAEATFELPEGVVEDQIHAQLHQLLNQVGGDEAALNAALEAQGTSREQFDADNRKNSEEAVRTQLFLDALAEQEQPEVSQQELTDHILFTAQSYGMDPNQFITQLQQSGQIGNLFSDVRRGKALAAAICRVSVKDDEGKAVDPSEYFGEEEESAEESE,soluble
10,MKSTEVKGSVSDATDFLVPLPPKSVNEKILNPAILTLFIPQIKAVSSIRERIYLLRIKWVISWDTPLTVYSVKLDDNRYIARYYASQKIPLFVVSFGFDFYIMSEGTGSRIKMKEWYKGPFKQLAKGEIEKHLKKAKEVLPEFLIKILEHHHHHH,soluble
11,MKSVLITFDQAYYERIMALLDRLNCRGFTYLEKVQGRGSKTGDPHFGSHAWPSMCSAILTVVDDNKVDPLLDTLHKMDLQTEQLGLRAFVWNIERTI,not soluble
12,MKTAAYMIHCLTNMHVGKGDATYEVVDKCVQRDVTTGMPCIYSSSLKGALRQFFSKQGFAELNYVFGKDQSRDKKNNGNEKNEEEHSVGNFTFFQANLLAYPVQTTQEGATYILKTNKTLQDPIKELANLFSAPSNIEEMLPKETEKDLSNETLEQLPVIARNQLDNGKSENLWYEEVVPAESRFVFFVSYDDEEIFTKFDKIIQEKVIQIGANGSIGYGFCKIANVTNPFKK,soluble
13,MKTEKDKMLAGEMYIADDEELVADRVEAKRLTRLYNEAVETGDERRFTLLNQLLGSSADGKAQINPDFRCDYGYNIHVGKSFFANFNCVILDVCEVRIGDHCMFAPGVHIYTATHPLHPVERNSGKEYGKPVKIGNNVWVGGGAIINPGVSIGDNAVIASGAVVTKDVPNNVVVGGNPAKVIKTIEE,not soluble
14,MKTFKAVRFQIVNEHGRIIEYELEDGVIINKEESGTGWLLEIVISNEHYETFKEYQDNEQLLDIRVVITRPANDPALFESTVKSIKNFKTTMSIVFECHIYTLRQQYAESLLEQLIDDGLSGEELKKSFNRMMQSKPKLKDEKLEELEHHHHHH,soluble
15,MKTIGLLGGMSWESTIPYYRLINEGIKQQLGGLHSASLLLHSVDFHDIEVCQRRDEWDKAGDILAQAAHGLQQAGAEGIVLCTNTMHKIAHVIESRCSLPFLHIADATGRAIARQGLHRVALLGTRYTMEQDFYRGRLEQQFAIETIVPEADDRARINQVIFDELCQGTFTDASRHYYLQVIEQLAAQGAQGVIFGCTEIGLLVPQTQSALPVFDTTAIHAADAVSFMLSSSAPE,soluble
16,MKTLIARHKAGEHIGICSVCSAHPLVIEAALAFDRNSTRKVLIEATSNQVNQFGGYTGMTPADFREFVFAIADKVGFARERIILGGDHLGPNCWQQENVDAAMEKSVELVKAYVRAGFSKIHLDASMSCAGDPIPLAPETVAERAAVLCFAAESVATDCQREQLSYVIGTEVPVPGGEASAIQSVHITHVEDAANTLRTHQKAFIARGLTEALTRVIAIVVQPGVEFDHSNIIHYQPQEAQALAQWIENTRMVYEAHSTDYQTRTAYWELVRDHFAILKVGPALTFALREAIFALAQIEQELIAPENRSGCLAVIEEVMLDEPQYWKKYYRTGFNDSLLDIRYSLSDRIRYYWPHSRIKNSVETMMVNLQGVDIPLGMISQYLPKQFERIQSGELSAIPHQLIMDKIYDVLRAYRYGCAE,soluble
17,MKTNEVLENIKARRSVRAYTDRQVSEEDLQAILEAATFAPSGMHLETWHFTAIQNADKLAELNERIKGAFAKSDEPKLQERGHSKAYCCYYHAPTLVIVSNEPTQWWAGMDCACAIENMFLAAHSLGIGSCWINQLGTTCDDPEVREFISSLGVPENHKVYGCVALGYADPKISLREKMVKAGTVTVVR,not soluble
18,MKTRKIPLRKSVVSNEVIDKRDLLRIVKNKEGQVFIDPTGKANGRGAYIKLDNAEALEAKKKKVFNRSFSMEVEESFYDELIAYVDHKVKRRELGLE,soluble
19,MKTTLIISTYNRPEALSVCLDSVRFQTVMPDEVIVGDDGSTSETKDLIESFKKDFPVPLIHLWQEDKGFRLAMMRNKSVAAATGDYIIEIDGDIFLHNKFVEDHKRLAKPGHYLRGTRVNLGQKLTEEICKSKVNRRIYPWTIGIQNRAETAIHSTPVSNFFADRYKKNVSSGLGCNMSFWRSDFLAINGYDEFFEGWGKEDDDLTHRLQRKGCKKRSLRFAGIVYHLWHGHESMESDQKNAEYFRKNNEKNIVYCENGVSKYLKQELEHHHHHH,soluble
20,MKTVILIGALGKMGQAALTGLSKHKVITAGRSGNVDHLVDITNENSIRALYEKVGHFDAVVNTVGFCEYATFAEMTEAQWMTTVMSKMMGQINLVRIGQEYIADKGSFTLISGILNVKPIPCAIADATTSGAIDTFVKCVAYEMQRGTRINVVNPTVLTEAWDVYGDMMPGFEPVPSTLVGKAFERSVDGFINGEVLFVDALEHHHHHH,soluble
